Measured values published in US20050042213A1, “Methods and pharmaceutical compositions for modulating heparanase activation and uses thereof” (InSight Biopharmaceuticals Ltd., priority 2003, published 2005).

T1: pro-heparanase (H60) (Homo sapiens, UniProt Q9Y251, K307R)
T1 sequence (Q9Y251 36-543 K307R): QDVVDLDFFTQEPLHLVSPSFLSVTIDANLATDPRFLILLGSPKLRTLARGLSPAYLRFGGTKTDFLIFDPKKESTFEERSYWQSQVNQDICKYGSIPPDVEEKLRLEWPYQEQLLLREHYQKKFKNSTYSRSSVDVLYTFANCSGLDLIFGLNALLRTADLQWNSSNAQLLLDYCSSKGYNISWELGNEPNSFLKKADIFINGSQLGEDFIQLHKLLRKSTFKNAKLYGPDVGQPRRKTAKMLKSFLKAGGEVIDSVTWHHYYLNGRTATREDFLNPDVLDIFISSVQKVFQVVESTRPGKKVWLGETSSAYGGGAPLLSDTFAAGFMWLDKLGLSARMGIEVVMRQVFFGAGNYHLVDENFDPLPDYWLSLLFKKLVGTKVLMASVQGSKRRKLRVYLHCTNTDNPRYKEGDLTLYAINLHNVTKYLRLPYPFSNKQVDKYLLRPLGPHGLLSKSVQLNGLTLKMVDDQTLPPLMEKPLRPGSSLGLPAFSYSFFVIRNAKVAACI


Target: T1, pro-heparanase (H60)
Test: Circular dichroism spectrometry of pro-heparanase
Set-up: key to a helix / β strand / β turn / Un-ordered: fraction of secondary structure (0-1)
Details: fraction of secondary structure of H60
Protocol: Circular Dichroism spectrometry—Circular Dichroism spectra were recorded using a JASCO 500 spetropolarimeter. Far Ultraviolet measurements (260-200 nm) were performed in a 0.1 mm demountable cuvette at 25° C., scanning at a rate of 10 nm/min. Pro-heparanase was assayed at a concentration of 0.72 mg/ml in 20 mM sodium phosphate buffer pH 6.8 supplemented with 300 mM NaCl. Effect of heparin on pro-heparanase spectra was determined at a concentration of 100 μM, and the inhibitor was added at a concentration of 15 μM. Base-line recordings were performed in the presence and absence of heparin to correct the pro-heparanase spectra.

Un-ordered | a helix | β strand | β turn | Molecule
0.33 | 0.29 | 0.26 | 0.12 | H60 − heparin: purified 60 kDa pro-heparanase without heparin (protein) QDVVDLDFFTQEPLHLVSPSFLSVTIDANLATDPRFLILLGSPKLRTLARGLSPAYLRFGGTKTDFLIFDPKKESTFEERSYWQSQVNQDICKYGSIPPDVEEKLRLEWPYQEQLLLREHYQKKFKNSTYSRSSVDVLYTFANCSGLDLIFGLNALLRTADLQWNSSNAQLLLDYCSSKGYNISWELGNEPNSFLKKADIFINGSQLGEDFIQLHKLLRKSTFKNAKLYGPDVGQPRRKTAKMLKSFLKAGGEVIDSVTWHHYYLNGRTATREDFLNPDVLDIFISSVQKVFQVVESTRPGKKVWLGETSSAYGGGAPLLSDTFAAGFMWLDKLGLSARMGIEVVMRQVFFGAGNYHLVDENFDPLPDYWLSLLFKKLVGTKVLMASVQGSKRRKLRVYLHCTNTDNPRYKEGDLTLYAINLHNVTKYLRLPYPFSNKQVDKYLLRPLGPHGLLSKSVQLNGLTLKMVDDQTLPPLMEKPLRPGSSLGLPAFSYSFFVIRNAKVAACI
0.3 | 0.44 | 0.26 | 0 | H60 + heparin: 60 kDa pro-heparanase in the presence of heparin (protein, UniProt Q9Y251 36-543, looked up, pro-form with heparin, 60 kDa pro-heparanase in the presence of heparin) pro-form: QDVVDLDFFTQEPLHLVSPSFLSVTIDANLATDPRFLILLGSPKLRTLARGLSPAYLRFGGTKTDFLIFDPKKESTFEERSYWQSQVNQDICKYGSIPPDVEEKLRLEWPYQEQLLLREHYQKKFKNSTYSRSSVDVLYTFANCSGLDLIFGLNALLRTADLQWNSSNAQLLLDYCSSKGYNISWELGNEPNSFLKKADIFINGSQLGEDFIQLHKLLRKSTFKNAKLYGPDVGQPRRKTAKMLKSFLKAGGEVIDSVTWHHYYLNGRTATKEDFLNPDVLDIFISSVQKVFQVVESTRPGKKVWLGETSSAYGGGAPLLSDTFAAGFMWLDKLGLSARMGIEVVMRQVFFGAGNYHLVDENFDPLPDYWLSLLFKKLVGTKVLMASVQGSKRRKLRVYLHCTNTDNPRYKEGDLTLYAINLHNVTKYLRLPYPFSNKQVDKYLLRPLGPHGLLSKSVQLNGLTLKMVDDQTLPPLMEKPLRPGSSLGLPAFSYSFFVIRNAKVAACI
